For experiment [1], the target named is T1, mCCRL2 (Mus musculus, UniProt O35457).
T1 construct: The coding regions of mCCRL2, huCCRL2, mCRTH2, and huCCR10 were amplified from genomic DNA; expressed in transfected cells
T1 sequence (O35457 1-360): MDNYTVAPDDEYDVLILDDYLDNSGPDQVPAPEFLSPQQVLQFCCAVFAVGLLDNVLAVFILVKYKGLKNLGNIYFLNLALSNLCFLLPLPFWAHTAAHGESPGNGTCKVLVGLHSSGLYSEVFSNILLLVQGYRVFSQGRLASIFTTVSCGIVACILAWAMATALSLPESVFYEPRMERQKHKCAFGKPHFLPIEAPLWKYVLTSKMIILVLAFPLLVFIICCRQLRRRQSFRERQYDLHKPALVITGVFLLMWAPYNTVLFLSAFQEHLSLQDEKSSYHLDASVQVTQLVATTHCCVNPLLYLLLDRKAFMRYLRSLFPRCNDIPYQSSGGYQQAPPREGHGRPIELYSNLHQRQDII
Put plainly: intracellular calcium mobilization, CCRL2/HEK293 transfectants. It counts as cell-based. As to conditions: HEK293 background, alone or in combination. The method, then: Chemoattractant-stimulated Ca^2+-mobilization was performed following Alliance for Cell Signaling protocol ID PP00000210. Cells (3×10^6/mL) were loaded with 4 μM Fluo4-AM and 0.16% Pluronic acid F-127 (Molecular Probes) in modified Iscove's medium (Iscove's medium with 1% heat inactivated bovine calf serum and 2 mM L-glutamine, Invitrogen) for 30 minutes at 37° C. The samples were mixed every 10 minutes during loading, washed once, resuspended at up to 2×10^6/mL in the same buffer, and allowed to rest in the dark for 30 minutes at room temperature. Chemoattractant-stimulated change in Ca^2+-sensitive fluorescence of Fluo-4 was measured over real-time with a FACsScan flow cytometer and CellQuest software (BD Biosciences) at room temperature under constant stirring (500 rpm). Fluorescent data were acquired continuously up to 1024 seconds at 1-second intervals. The samples were analyzed for 45 seconds to establish basal state, removed from the nozzle to add the stimuli, and then returned to the nozzle. Mean channel fluorescence over time was analyzed with FlowJo (TreeStar, Ashland, Oreg., USA) software. […] 500 μl of these chemerin-loaded cells were added to mCMKLR1/L1.2 cells loaded with Fluo4-AM, and calcium mobilization was evaluated.
Background: Calcium flux is commonly read through the fluorescence of an indicator in the cells.

Experiment [2] concerns the target T1, mCCRL2. In words: in vitro transwell chemotaxis, mCCRL2/L1.2 transfectants. In kind it is cell-based. The method, then: For migration experiments using cell lines, 2.5×10^5 cells/100 μl chemotaxis media (RPMI+10% fetal calf serum) were added to the top wells of 5-um pore transwell inserts (Costar, Corning, N.Y., USA), and test samples in 600 μl media were added to the bottom wells. After incubating the transwell plates for 1.5 hours at 37° C., the bottom wells were harvested and flow cytometry was used to assess migration. For primary cell chemotaxis, 1×10^6 cells/100 μl were added to the top well, and, following a 2 hour incubation at 37° C., polystyrene beads (15.0 μm diameter, Polysciences, Warrington, Pa., USA) were added to each well to facilitate normalization of the cell count. The cells were then stained for c-kit, F4/80, and/or CD11b expression and analyzed by flow cytometry. A ratio was generated and percent input migration was calculated.

Experiment [3] concerns the target T1, mCCRL2. In words: chemerin binding/anti-mCCRL2 mAb displacement on peritoneal mast cells (flow cytometry). As to conditions: 1000 nM. (In general: Flow cytometry measures light scatter and fluorescence of single cells or particles in a stream.)
For experiment [4], the target named is T2, mouse CMKLR1 (chemokine-like receptor 1), untagged (mouse, UniProt P97468 1-371).
T2 construct: whole, on cells; also called mCMKLR1; mCMKLR1/L1.2
T2 sequence (looked up): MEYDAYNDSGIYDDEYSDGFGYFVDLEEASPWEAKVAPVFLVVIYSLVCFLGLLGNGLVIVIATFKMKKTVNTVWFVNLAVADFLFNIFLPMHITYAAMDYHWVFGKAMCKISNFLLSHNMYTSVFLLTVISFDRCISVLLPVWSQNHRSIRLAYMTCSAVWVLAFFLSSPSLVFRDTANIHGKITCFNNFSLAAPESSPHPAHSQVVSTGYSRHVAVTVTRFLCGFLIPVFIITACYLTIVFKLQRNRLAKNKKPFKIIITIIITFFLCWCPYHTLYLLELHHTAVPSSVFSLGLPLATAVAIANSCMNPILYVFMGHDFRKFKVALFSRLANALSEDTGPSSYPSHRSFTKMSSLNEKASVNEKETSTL
In words: radioligand competition on L1.2 transfectants, 125I-chemerin 21-148 displaced by the peptide … [panel B, legend box].

Experiment [5] concerns the target T2, mouse CMKLR1 (chemokine-like receptor …). Put plainly: radioligand competition on L1.2 transfectants. (Displacement assays read how much labelled ligand stays bound in the presence of the test substance.)
For experiment [6] the target is unchanged. Put plainly: radioligand competition on L1.2 transfectants; displaces 125I-chemerin 21-148; 9-mer peptide … on CMKLR1.
Experiment [7] addresses T3, mouse CCRL2 (chemokine (CC motif) receptor-like 2), untagged (mouse, UniProt O35457 1-360).
T3 construct: whole, on cells; also called mCCRL2; mCCRL2/L1.2
T3 sequence (looked up): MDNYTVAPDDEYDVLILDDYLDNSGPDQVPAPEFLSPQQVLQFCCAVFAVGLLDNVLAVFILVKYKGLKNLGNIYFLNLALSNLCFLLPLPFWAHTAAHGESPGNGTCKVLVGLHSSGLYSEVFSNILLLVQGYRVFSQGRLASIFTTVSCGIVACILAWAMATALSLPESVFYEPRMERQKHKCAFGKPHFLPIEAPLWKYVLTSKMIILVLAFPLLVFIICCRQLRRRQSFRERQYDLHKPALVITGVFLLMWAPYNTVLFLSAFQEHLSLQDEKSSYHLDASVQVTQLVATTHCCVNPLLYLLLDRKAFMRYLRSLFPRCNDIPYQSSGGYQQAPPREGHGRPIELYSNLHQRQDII
In words: flow cytometry; chemerin inhibits staining of mouse peritoneal mast cells by the competitor anti-mCCRL2 BZ5B8; chemerin blocks anti-mCCRL2 mAb staining of mouse peritoneal mast cells.

As for “CCL2: chemokine purchased from R&D Systems”, the “agonism, intracellular calcium mobilization” value in experiment [1] is given as “neither CCL2 nor chemerin functioned as agonists”. Besides, the “synergy of CCL2 and chemerin in transwell migration” value in experiment [2] (CCL2 with chemerin) is reported as “did not synergize”. In addition, the transwell migration entry in experiment [2] (range of doses, CXCL12 and CCL19 act via endogenous CXCR4 and CCR7) is given as “did not induce migration”. In experiment [3], the “effect on CCRL2 staining” value is reported as “no effect”.

B1: bioactive 9-mer carboxyl-terminal chemerin peptide (residues 149-157) (peptide)
peptide: YFPGQFAFS
notes: Synthetic peptide; also called bioactive chemerin peptide
The term EC50 denotes the concentration needed to bring the measured effect to its halfway point. Turning to B1, the concentration for a half-maximal effect (EC50) is 29 nM in experiment [4] and 26.2 nM in experiment [6]. Moreover, the “fold less potent (against chemerin protein)” value in experiment [5] amounted to 10 fold.

B2: human chemerin (as used to block anti-mCCRL2 staining, FIG. 6 Panel A) (ligand, UniProt Q99969 21-157, looked up)
chain: ELTEAQRRGLQVALEEFHKHPPVQWAFQETSVESAVDTPFPAGIFVRLEFKLQQTSCRKRDWKKPECKVRPNGRKRKCLACIKLGSEDKVLGRLVHCPIETQVLREAEEHQETQCLRVQRAGEDPHSFYFPGQFAFS
Regarding B2, it took 21 nM to reach a half-maximal effect in experiment [7] (EC50). This lies in the double-digit nanomolar range.

Source of the values: patent US20100092974A1, “METHODS FOR SCREENING FOR MODULATORS OF CCRL2” (The Board of Trustees of the Leland Stanford Junior …, priority 2008, published 2010).
